{
  "source": "paper PMC9712583",
  "about": "“Time-resolved β-lactam cleavage by L1 metallo-β-lactamase” (Nature Communications, 2022)",
  "proteins": {"B1": {"name": "L1 metallo-β-lactamase (MBL) from Stenotrophomonas maltophilia (enzyme)", "chain": "SAAEAPLPQLRAYTVDASWLQPMAPLQVADHTWQIGTEDLTALLVQTAEGAVLLDGGMPQMAGHLLDNMKLRGVAPQDLRLILLSHAHADHAGPVAELKRRTGAHVAANAETAVLLARGGSNDLHFGDGITYPPASADRIIMDGEVVTVGGIAFTAHFMPGHTPGSTAWTWTDTRDGKPVRIAYADSLSAPGYQLKGNPRYPRLIEDYKRSFATVRALPCDLLLTPHPGASNWNYAVGSKASAEALTCNAYADAAEKKFDAQLARETAGTR", "notes": "L1 metallo-β-lactamase, Stenotrophomonas maltophilia K279a, residues 20-290, amplified from genomic DNA and cloned into pMCSG53; Homotetramer; Active-site residue numbers in the text (H116, H118, D120 ...) appear to follow the standard MBL numbering, not the 20-290 numbering of the construct; also called L1 MBL; source: E. coli BL21 DE3 (Gold), purified (IMAC, TEV cleavage, second IMAC); not …"}},
  "target": "the molecule itself",
  "assay": "SEC; L1 in solution; conditions not given",
  "data": [
    {"protein": "B1", "values": [
      {"measurement": "stoichiometry N", "result": 4}
    ]}
  ]
}
